According to paper doi:10.1101/2021.09.28.462122:

Biological target: NADP+-specific glutamate dehydrogenase from Aspergillus terreus (Aspergillus terreus)
Assay: crystal structure

For “NADP+-specific glutamate dehydrogenase from Aspergillus terreus (enzyme)”, the stoichiometry N was 6.
